Source: patent US20130196383A1, “Method of Producing Dicer” (published 2013)

T1: MBP-ATPase/helicase fragment of human Dicer (Homo sapiens, UniProt Q9UPY3 SEQ:1-604)
T1 chain: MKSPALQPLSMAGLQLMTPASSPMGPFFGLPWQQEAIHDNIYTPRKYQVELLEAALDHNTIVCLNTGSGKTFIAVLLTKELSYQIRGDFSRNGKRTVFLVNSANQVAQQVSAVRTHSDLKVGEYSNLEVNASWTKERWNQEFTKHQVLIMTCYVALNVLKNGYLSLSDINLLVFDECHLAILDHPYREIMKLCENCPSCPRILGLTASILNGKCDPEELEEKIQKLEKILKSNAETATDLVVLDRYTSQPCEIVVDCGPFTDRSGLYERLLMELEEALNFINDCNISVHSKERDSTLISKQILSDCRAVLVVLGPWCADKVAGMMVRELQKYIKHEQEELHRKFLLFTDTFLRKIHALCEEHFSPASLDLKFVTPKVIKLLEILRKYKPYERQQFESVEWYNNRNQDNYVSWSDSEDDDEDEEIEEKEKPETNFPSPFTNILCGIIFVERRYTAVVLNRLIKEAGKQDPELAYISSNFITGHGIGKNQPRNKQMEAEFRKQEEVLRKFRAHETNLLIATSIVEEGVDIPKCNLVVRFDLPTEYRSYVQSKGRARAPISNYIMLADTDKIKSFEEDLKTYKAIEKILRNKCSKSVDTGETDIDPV

T2: hDcr-CΔRBD fragment of human Dicer (Homo sapiens, UniProt Q9UPY3 SEQ:1235-1844)
T2 chain: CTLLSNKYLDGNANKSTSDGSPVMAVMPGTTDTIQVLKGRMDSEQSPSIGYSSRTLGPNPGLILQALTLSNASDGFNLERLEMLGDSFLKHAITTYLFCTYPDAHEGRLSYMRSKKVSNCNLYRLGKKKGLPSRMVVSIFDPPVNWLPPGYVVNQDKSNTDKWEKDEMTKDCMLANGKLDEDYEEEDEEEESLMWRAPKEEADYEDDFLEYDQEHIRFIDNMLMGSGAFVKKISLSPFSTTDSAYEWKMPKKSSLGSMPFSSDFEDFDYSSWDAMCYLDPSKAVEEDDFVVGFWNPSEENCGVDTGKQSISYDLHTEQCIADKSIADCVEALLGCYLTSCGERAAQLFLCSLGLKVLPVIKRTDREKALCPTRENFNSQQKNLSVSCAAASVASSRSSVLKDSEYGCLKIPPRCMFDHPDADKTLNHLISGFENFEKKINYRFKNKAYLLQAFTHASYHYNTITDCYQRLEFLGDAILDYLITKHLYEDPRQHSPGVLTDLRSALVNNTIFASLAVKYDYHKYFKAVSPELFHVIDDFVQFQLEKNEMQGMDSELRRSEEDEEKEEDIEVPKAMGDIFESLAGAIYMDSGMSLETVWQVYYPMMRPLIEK

T3: hDcr-C (RNase IIIa/IIIb-dsRBD) fragment of human Dicer (Homo sapiens, UniProt Q9UPY3 SEQ:1235-1922)
T3 chain: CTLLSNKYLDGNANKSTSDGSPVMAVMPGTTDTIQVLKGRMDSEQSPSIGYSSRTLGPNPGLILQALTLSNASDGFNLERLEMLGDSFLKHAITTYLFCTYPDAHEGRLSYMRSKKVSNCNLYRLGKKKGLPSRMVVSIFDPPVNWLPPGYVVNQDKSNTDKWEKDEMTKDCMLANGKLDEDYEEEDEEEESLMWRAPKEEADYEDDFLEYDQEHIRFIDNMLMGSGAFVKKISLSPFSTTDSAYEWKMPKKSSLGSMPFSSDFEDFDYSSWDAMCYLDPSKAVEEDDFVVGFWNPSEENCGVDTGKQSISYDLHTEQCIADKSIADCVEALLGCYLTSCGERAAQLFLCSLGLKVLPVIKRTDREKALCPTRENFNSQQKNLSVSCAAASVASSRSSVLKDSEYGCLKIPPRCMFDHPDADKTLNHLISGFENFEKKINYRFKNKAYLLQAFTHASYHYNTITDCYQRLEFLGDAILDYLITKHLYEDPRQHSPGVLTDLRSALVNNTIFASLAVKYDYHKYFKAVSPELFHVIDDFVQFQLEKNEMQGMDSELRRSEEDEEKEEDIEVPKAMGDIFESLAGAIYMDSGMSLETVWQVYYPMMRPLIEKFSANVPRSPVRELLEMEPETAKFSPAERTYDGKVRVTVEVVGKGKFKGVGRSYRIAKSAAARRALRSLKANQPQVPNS

T4: MBP-ATPase/hel, ATPase/helicase domain of human Dicer (1-604) fused with maltose-binding protein, bacterially … (human, UniProt Q9UPY3 1-604)
T4 construct: not shown: the His6 tag and the linker/TEV site lette
T4 sequence: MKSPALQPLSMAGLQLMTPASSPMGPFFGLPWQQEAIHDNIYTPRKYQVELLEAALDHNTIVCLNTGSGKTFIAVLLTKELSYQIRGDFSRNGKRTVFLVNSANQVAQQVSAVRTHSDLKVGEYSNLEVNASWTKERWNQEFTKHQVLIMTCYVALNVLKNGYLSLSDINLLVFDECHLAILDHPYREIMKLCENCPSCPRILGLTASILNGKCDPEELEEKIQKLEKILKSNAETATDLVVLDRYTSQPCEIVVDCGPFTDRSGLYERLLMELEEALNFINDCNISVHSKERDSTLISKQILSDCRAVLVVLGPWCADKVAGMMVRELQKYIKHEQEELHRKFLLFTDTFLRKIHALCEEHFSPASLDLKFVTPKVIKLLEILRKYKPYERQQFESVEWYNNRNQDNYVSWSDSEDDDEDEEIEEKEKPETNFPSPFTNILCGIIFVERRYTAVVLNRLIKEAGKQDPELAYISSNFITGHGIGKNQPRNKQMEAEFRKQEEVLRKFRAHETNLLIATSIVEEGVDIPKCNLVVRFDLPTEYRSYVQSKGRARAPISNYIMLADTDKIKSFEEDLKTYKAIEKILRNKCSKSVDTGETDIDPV


Legend:
[1] = target: T1, MBP-ATPase/helicase fragment of human …; experiment: filter; out of detectable limit; 5 mM EDTA; conditions: tags: His6-MBP N-terminal fusion (pHMGWA), E. coli; label: 5'-32P on one strand; siRNA duplex, 19 bp, Dicer product mimic
Method: (§1) Filter binding assays of hDcr and different hDcr fragments were performed in the same way as previously described (7). Briefly, serial dilutions of hDcr protein were incubated in a buffer containing 20 mM Tris-HCl (pH 7.5), 25 mM NaCl, 5 mM EDTA, 1 mM dithiothreitol (DTT), 1% glycerol and ˜0.5-1 nM (1500 CPM) of 5′-end ³²P-labeled duplex RNA substrate (one strand was labeled) at room temperature for 60 min in a 30 μl of total volume. Following incubation, a 25 μl aliquot of each reaction was applied to a dot-blot apparatus equipped with three membranes: Tuffryn, Protran and Nytran (from top to bottom). After drying, the bound (on Protran) or free (on Nytran) RNAs were quantified by a Phosphorimager (GE Healthcare). Percent bound RNA, calculated as the ratio of radioactivity detected on the Protran membrane over the total input radioactivity, was plotted as a function of protein concentration. Kd was determined by global fitting to the equation: kobsd=(kₘₐₓ[…]) (Kd+[Dicer])−1, where kobsd is the observed rate constant at a given protein concentration, kₘₐₓ is the maximal rate constant with saturating protein, and Kd is the protein concentration that provides half the maximal rate. Curve fitting was conducted with KaleidaGraph (Synergy Software, Reading, Pa.). […]

[2] = target: T2, hDcr-CΔRBD fragment of human Dicer; experiment: filter; out of detectable limit; conditions: tags: expressed from pHMGWA-His6-MBP vector, E. coli; label: 5'-32P on one strand; siRNA duplex, 19 bp, Dicer product mimic
Method: Filter binding assays of hDcr and different hDcr fragments were performed in the same way as previously described (7). Briefly, serial dilutions of hDcr protein were incubated in a buffer containing 20 mM Tris-HCl (pH 7.5), 25 mM NaCl, 5 mM EDTA, 1 mM dithiothreitol (DTT), 1% glycerol and ˜0.5-1 nM (1500 CPM) of 5′-end ³²P-labeled duplex RNA substrate (one strand was labeled) at room temperature for 60 min in a 30 μl of total volume. Following incubation, a 25 μl aliquot of each reaction was applied to a dot-blot apparatus equipped with three membranes: Tuffryn, Protran and Nytran (from top to bottom). After drying, the bound (on Protran) or free (on Nytran) RNAs were quantified by a Phosphorimager (GE Healthcare). Percent bound RNA, calculated as the ratio of radioactivity detected on the Protran membrane over the total input radioactivity, was plotted as a function of protein concentration. Kd was determined by global fitting to the equation: kobsd=(kₘₐₓ[…]) (Kd+[Dicer])−1, where kobsd is the observed rate constant at a given protein concentration, kₘₐₓ is the maximal rate constant with saturating protein, and Kd is the protein concentration that provides half the maximal rate. Curve fitting was conducted with KaleidaGraph (Synergy Software, Reading, Pa.).
To establish the relationship between cleavage activity and substrate binding, nitrocellulose filter-binding assays were performed with three kinds of RNAs under non-cleavage conditions: substrate dsRNA ([…]), Dicer product-mimic dsRNA (19-bp) and a pre-miRNA (pre-hlet-7a-1).

[3] = target: T3, hDcr-C (RNase IIIa/IIIb-dsRBD) fragment …; experiment: filter; out of detectable limit; almost no binding; conditions: tags: expressed from pHMGWA-His6-MBP vector, E. coli; label: 5'-32P on one strand; siRNA duplex, 19 bp, Dicer product mimic
Method: as §1

[4] = target: T4, MBP-ATPase/hel, ATPase/helicase domain …; experiment: size exclusion and pull-down (brief figure description)
Method: Six microgram of both of hTRBP2 and mbp-ATPase/hel-HA proteins were mixed with 15 μl of anti-hemagglutinin (anti-HA) antibody-coupled agarose beads in 1× phosphate-buffered saline (PBS) buffer (Sigma, Saint Louis, Mo.) and incubated in cold room and rocked 60 min. The mixture was pelleted by 30 sec spin at 10,000×g and then washed once with 1×PBS and followed by 5 times with the washing buffer of 20 mM Hepes (pH 7.5), 250 mM NaCl, 1% glycerol and 0.1% Triton X-100. After the last wash, the pellet was boiled for 3 min in 1.2×SDS protein loading buffer. As a control, hTRBP2 alone was also processed in the same way.
ATPase/Helicase domain of hDcr interacts with TRBP. A. Schematic representation of bacterially expressed ATPase/hel domain tagged with MBP. B. The interaction of MBP-ATPase/hel fragment with hTRBP2. A pre-incubated mixture of the MBP-ATPase/hel fragment with 3-fold excess of hTRBP2 was fractionated with a Superdex 200 size-exclusion column (top panel, elution profile). […] The excess hTRBP2 elutes in the second peak. C. MBP-ATPase/hel can pull-down hTRBP2. The MBP-ATPase/hel-domain was purified with a C-terminal hemagglutinin (HA) epitope tag. The two purified proteins (30 pmol of hDcr and 130 pmol of hTRBP2) were incubated on ice with anti-HA antibody agarose beads (Sigma-Aldrich) for 60 min prior to several washes. The bound proteins are eluted via boiling with 1.2×SDS buffer. […]

Row | binding result [4] | Binder | binding result [1] | binding result [2] | binding result [3]
1 | – | 21ab (dsRNA) RNA 1: UAUACAAUGUGCUAGCUUUCU RNA 2: AAAGCUAGCACAUUGUAUAGU | no binding | no binding | no binding
2 | binds | human TAR-RNA binding protein (hTRBP2), recombinant (other, UniProt Q15633 1-366, looked up, Purified recombinant protein) MSEEEQGSGTTTGCGLPSIEQMLAANPGKTPISLLQEYGTRIGKTPVYDLLKAEGQAHQPNFTFRVTVGDTSCTGQGPSKKAAKHKAAEVALKHLKGGSMLEPALEDSSSFSPLDSSLPEDIPVFTAAAAATPVPSVVLTRSPPMELQPPVSPQQSECNPVGALQELVVQKGWRLPEYTVTQESGPAHRKEFTMTCRVERFIEIGSGTSKKLAKRNAAAKMLLRVHTVPLDARDGNEVEPDDDHFSIGVGSRLDGLRNRGPGCTWDSLRNSVGEKILSLRSCSLGSLGALGPACCRVLSELSEEQAFHVSYLDIEELSLSGLCQCLVELSTQPATVCHGSATTREAARGEAARRALQYLKIMAGSK | – | – | –
